Measurements published in article PMC12101541.

How the values were obtained:
[1] = molecular target: GGlFGGn-TgSkp1 (fully glycosylated TgSkp1, GalGlcFucGalGlcNAc glycan at Hyp154) (Toxoplasma gondii); assay: AUC; sedimentation velocity, 50,000 rpm, 20 °C, 50 mM K phosphate (pH 7.4), 25 mM KCl (standard buffer); Sw isotherm fitted with a monomer-dimer self-association model (SedPhat); dimer to monomers
[2] = molecular target: full-length TgSkp1 (Skp1 from Toxoplasma gondii), unmodified (Toxoplasma gondii); assay: as above
[3] = molecular target: TgSkp1-poly-Ser (TgSkp1 with the CTR replaced by poly-serine) (Toxoplasma gondii); assay: as above
[4] = molecular target: TgSkp1ΔCTR (TgSkp1 lacking the C-terminal region) (Toxoplasma gondii); assay: as above
[5] = molecular target: TgSkp1ΔloopΔCTR (TgSkp1 with the internal loop replaced by GGSG and the CTR deleted) (Toxoplasma gondii); assay: AUC; sedimentation velocity as in the standard experiment but with 600 mM KCl (high salt, ionic strength of 710 mM); Sw isotherm, monomer-dimer model; dimer to monomers
[6] = molecular target: TgSkp1ΔloopΔCTR (TgSkp1 with the internal loop replaced by GGSG and the CTR deleted) (Toxoplasma gondii); assay: AUC; sedimentation velocity, 50,000 rpm, 20 °C, 50 mM K phosphate (pH 7.4), 25 mM KCl (standard buffer); Sw isotherm fitted with a monomer-dimer self-association model (SedPhat); dimer to monomers
[7] = molecular target: TgSkp1Δloop (TgSkp1 with the internal disordered loop replaced by GGSG) (Toxoplasma gondii); assay: AUC; sedimentation velocity as in the standard experiment but with 600 mM KCl (high salt, ionic strength of 710 mM); Sw isotherm, monomer-dimer model; dimer to monomers
[8] = molecular target: TgSkp1Δloop (TgSkp1 with the internal disordered loop replaced by GGSG) (Toxoplasma gondii); assay: AUC; sedimentation velocity, 50,000 rpm, 20 °C, 50 mM K phosphate (pH 7.4), 25 mM KCl (standard buffer); Sw isotherm fitted with a monomer-dimer self-association model (SedPhat); dimer to monomers

“GGlFGGn-TgSkp1 (fully glycosylated TgSkp1, GalGlcFucGalGlcNAc glycan at Hyp154) (natural protein)” showed a Kd [1] of 400 nM and a stoichiometry N [1] of 2.

“full-length TgSkp1 (Skp1 from Toxoplasma gondii), unmodified (natural protein)” gave a Kd [2] of 50 nM, a degree of dissociation at 300 nM [2] of 18% and a stoichiometry N [2] of 2.

“TgSkp1-poly-Ser (TgSkp1 with the CTR replaced by poly-serine)” gave a Kd [3] of 900 nM and a stoichiometry N [3] of 2.

With “TgSkp1ΔCTR (TgSkp1 lacking the C-terminal region) (domain or fragment)” the Kd [4] was 900 nM and the stoichiometry N [4] was 2.

With “TgSkp1ΔloopΔCTR (TgSkp1 with the internal loop replaced by GGSG and the CTR deleted) (domain or fragment)” the Kd [5] was 1900 nM, the Kd [6] was 2400 nM and the stoichiometry N [6] was 2.

Work on “TgSkp1Δloop (TgSkp1 with the internal disordered loop replaced by GGSG) (natural protein)” yielded a Kd [7] of 8.5 µM, a Kd [8] of 200 nM and a stoichiometry N [8] of 2.
